Here are results for 6 molecules from patent US20230295345A1 (published 2023).

First the molecules themselves.
T1: mouse TMPRSS6 expressed on HEK293T cells (MoTMPRSS6-(His)6) (mouse, UniProt Q9DBI0 1-811)
T1 construct: stably expressed in HEK293T cells; also called murine TMPRSS6
T1 sequence: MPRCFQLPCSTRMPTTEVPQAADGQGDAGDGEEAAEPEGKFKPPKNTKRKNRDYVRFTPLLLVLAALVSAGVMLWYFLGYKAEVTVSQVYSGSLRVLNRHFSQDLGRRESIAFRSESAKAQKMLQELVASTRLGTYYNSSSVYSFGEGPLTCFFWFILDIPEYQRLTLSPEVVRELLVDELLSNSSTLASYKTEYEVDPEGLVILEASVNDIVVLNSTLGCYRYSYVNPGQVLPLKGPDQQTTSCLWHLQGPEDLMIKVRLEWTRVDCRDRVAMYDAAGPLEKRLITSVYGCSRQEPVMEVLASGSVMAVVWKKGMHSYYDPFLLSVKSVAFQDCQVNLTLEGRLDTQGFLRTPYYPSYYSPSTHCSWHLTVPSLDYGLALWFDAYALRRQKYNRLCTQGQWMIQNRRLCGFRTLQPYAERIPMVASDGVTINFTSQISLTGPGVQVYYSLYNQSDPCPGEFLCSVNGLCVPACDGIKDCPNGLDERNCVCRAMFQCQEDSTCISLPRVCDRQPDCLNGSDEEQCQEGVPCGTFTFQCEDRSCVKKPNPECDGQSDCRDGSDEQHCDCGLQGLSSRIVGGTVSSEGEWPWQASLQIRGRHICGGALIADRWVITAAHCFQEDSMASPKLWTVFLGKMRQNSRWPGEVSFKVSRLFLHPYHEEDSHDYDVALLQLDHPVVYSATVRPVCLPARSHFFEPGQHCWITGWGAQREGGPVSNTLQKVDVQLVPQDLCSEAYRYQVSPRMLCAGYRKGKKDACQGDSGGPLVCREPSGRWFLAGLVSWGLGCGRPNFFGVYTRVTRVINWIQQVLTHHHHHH

T2: matriptase (ST14) over-expressed in HEK293T cells (human, UniProt Q9Y5Y6 1-855)
T2 construct: also called matriptase-1
T2 sequence: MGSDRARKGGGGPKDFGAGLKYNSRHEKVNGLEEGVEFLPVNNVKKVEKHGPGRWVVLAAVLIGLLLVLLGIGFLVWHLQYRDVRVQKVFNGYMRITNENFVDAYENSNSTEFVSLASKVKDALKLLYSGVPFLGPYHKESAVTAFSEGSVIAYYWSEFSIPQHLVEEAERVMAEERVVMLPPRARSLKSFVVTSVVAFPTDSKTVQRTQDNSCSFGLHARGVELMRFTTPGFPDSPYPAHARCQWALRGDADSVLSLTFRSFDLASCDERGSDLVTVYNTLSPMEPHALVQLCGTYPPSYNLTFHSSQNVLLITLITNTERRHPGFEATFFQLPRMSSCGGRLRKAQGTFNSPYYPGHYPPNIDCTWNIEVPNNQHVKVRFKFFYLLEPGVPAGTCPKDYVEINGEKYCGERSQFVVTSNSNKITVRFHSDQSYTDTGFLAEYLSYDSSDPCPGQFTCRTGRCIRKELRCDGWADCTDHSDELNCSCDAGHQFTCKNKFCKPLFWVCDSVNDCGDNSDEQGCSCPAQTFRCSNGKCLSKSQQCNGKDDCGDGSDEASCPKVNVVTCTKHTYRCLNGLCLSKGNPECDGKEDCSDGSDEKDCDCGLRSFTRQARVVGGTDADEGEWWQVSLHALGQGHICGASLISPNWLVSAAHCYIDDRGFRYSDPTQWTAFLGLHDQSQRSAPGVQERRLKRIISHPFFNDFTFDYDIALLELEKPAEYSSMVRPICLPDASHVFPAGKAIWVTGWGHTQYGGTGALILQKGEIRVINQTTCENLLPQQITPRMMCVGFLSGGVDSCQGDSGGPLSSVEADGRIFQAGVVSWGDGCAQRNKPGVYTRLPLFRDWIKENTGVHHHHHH

B1: MWTx-001 anti-TMPRSS6 antibody (antibody, mouse IgG2a, kappa, V domains shown)
VH: QVQLQQPGAELAKPGASVKMSCKASGYTFTSYWITWVKQRPGQDLEWIGNIYPGSGSTYYNEKFKSKATLTVDTSSRTAYMQLSSLTSADSAVYYCAPYDSDYAMDYWGQGTSVTVSS
VL: DIKMTQSPSSMYASLGERVTITCKASQDINNYLSWFQQKPGKSPKTLIYRANRLVDGVPSRVSGSGSGQDYSLTISSLEYEDVGIYFCLQYDEFPLTFGAGTKLELKR
notes: Mouse monoclonal antibody from a hybridoma (ATCC PTA-126759)
B2: MWTx-003 anti-TMPRSS6 antibody (antibody, mouse IgG2b, kappa, V domains shown)
VH: EVQLQQSGAELVKPGASVKLSCTASGFNIEDYYIHWVKERTEQGLEWIGRIDPEDGETTYAPQFQGKATIIPDTSSNTAYMQLSSLTSEDAAVYYCARSIYLDPMDYWGQGTSVTVSS
VL: DIVMTQSHKFMSTSVGDRVSITCKASQDVTTAVAWYQQKPGQSPKILIYWATTRHTGVPDRFTGSISGTTYILTISSVQAEDLALYYCQQHYSTPYTFGGGTKLEIKR
notes: Mouse monoclonal antibody from a hybridoma (ATCC PTA-126761); also called r4K12B (recombinantly expressed version, same HC and LC)
B3: hzMWTx-002Var anti-TMPRSS6 antibody (antibody, human IgG1, kappa, N297A, V domains shown)
VH: EVQLVQSGAEVKKPGASVKVSCKASGFNIKDYYIHWVRQATGQGLEWMGRIDPEDAESEYAPKFQGRVTITADTSTDTAYMELSSLRSEDTAVYYCTRGDSMMVTYFDYWGQGTLVTVSS
VL: DIQMTQSPSSLSASVGDRVTITCKASQDVSTAVAWYQQKPGKAPKLLIYWAFTRHTGVPSRFSGSGSGTDYALTISSLQPEDFATYYCQQHYRSPWTFGGGTKVEIKR
notes: Humanized variant of MWTx-002, human IgG1/kappa
B4: hzMWTx-003Var anti-TMPRSS6 antibody (antibody, human IgG1, kappa, L234A L235A, V domains shown)
VH: QVQLVQSGAEVKKPGASVKVSCKASGFNIEDYYMHWVRQAPGQRLEWMGRIDPEDAETTYSPKFQGRVTIIPDTSANTAYMELSSLRSEDTAVYYCARSIYLDPMDYWGQGTLVTVSS
VL: DIQMTQSPKSLSASVGDRVTITCRASQDVTTALAWYQQKPGQSPKLLIYWATTRHSGVPSRFSGSGSGTDFTLTISSLQPEDFATYYCQQHYSTPYTFGQGTKLEIKR
notes: Humanized variant of MWTx-003, human IgG1/kappa
B5: hzMWTx-001Var anti-TMPRSS6 antibody (antibody, human IgG1, kappa, N297A, V domains shown)
VH: EVQLVQSGAEVKKPGASVKVSCKASGYTFTSYWITWVRQAPGQRLEWIGNIYPGSGSTYYNEKFKSKATITRDTSSRTAYMELSSLRSEDTAVYYCAPYDADYAMDYWGQGTLVTVSS
VL: DIQMTQSPSSLSASVGDRVTITCKASQDISNYLSWFQQKPGKAPKLLIYRANRLVEGVPSRFSGSGSGTDFTLTISSLQPEDFATYFCLQYDEFPLTFGGGTKVEIKR
notes: Humanized variant of MWTx-001, human IgG1/kappa
B6: MWTx-002 anti-TMPRSS6 antibody (antibody, mouse IgG2b, kappa, V domains shown)
VH: EVQLQQSGAELVKPGASVKLSCTASGFNIKDYYIHWVKERTEQGLEWFGRIDPEDGESEYAPKFQGKATLTADTSSNTAYLQLSSLTSEDTAVYYCTRGDSMMVTYFDYWGQGTTLTVSS
VL: DIVMTQSHKFMSTSVGDRVSITCKASQDVSTAVAWYQQKPGQSPKLLIYWAFTRHTGVPDRFTSTGSGTDYALTISSVQAEDLALYYCQQHYRSPWTFGGGTKLEIKR
notes: Mouse monoclonal antibody from a hybridoma (ATCC PTA-126760)

One experiment concerns the target T1, mouse TMPRSS6 expressed on HEK293T …. The experiment can be described thus: cell surface ELISA on fixed HEK293T cells expressing mouse TMPRSS6. As to the method: HEK293T cells stably expressing mouse TMPRSS6 (generated by LakePharma Inc as described above, FIGS. 4J, 4L, 4N, 4P, 4R, 4T) or cynomolgus monkey (generated in house as described above, FIGS. 4K, 4M, 4O, 4Q, 4S, 4U) were fixed with methanol (100%), and washed with dPBS (Dulbecco’s phosphate-buffered saline, Corning Cellgro) before incubation with various concentrations of anti-TMPRSS6 antibodies and their humanized variants diluted in BSA medium (DMEM + 1% Pen/Strep + 10 mM HEPES + 1 mg/ml BSA (Sigma-Aldrich)). Purified mouse IgG (FIGS. 4J-4O) or Human IgG1 (FIGS. 4P-4U) was used as a control. After incubation, cells were washed with BSA medium and then incubated with goat anti-mouse (Invitrogen, FIGS. 4J-4O) or anti-human (Millipore, FIGS. 4P-4U) IgG conjugated with HRP as a 2° antibody. Finally, cells were washed with dPBS to remove unbound antibody and color developed with ELISA liquid substrate (Sigma-Aldrich), followed by stopping the reaction with addition of the same volume of ELISA liquid substrate of 1 M H₂SO₄. Bound antibody was measured by absorbance at OD₄₅₀ₙₘ.
(In general: An ELISA detects its analyte on a solid surface through an enzyme-linked reagent.)
In the case of B1, the binding result was “binds”.
The same measure, in the same setting: the entry for B2 is “binds”; for B3 it is “no binding”.
With B4, the binding result was “binds”.
As to B5, the binding result is “binds”.

The target of another experiment is T2, matriptase (ST14) over-expressed in …. The experiment can be described thus: FACS on permeabilized HEK293T cells over-expressing ST14. An excerpt:
To determine if anti-TMPRSS6 antibodies bind to homologous matriptases, HEK293T cells over-expressing matriptase (ST14) (SEQ ID NO: 100) (FIGS. 5B, 5E, 5H, 5K, 5N, 5Q), and HEK293T cells over-expressing matriptase-3 (TMPRSS7) (SEQ ID NO: 101) (FIGS. 5C, 5F, 5I, 5L, 5O, 5R) were collected (generated in house). HEK293T cells stably expressing human TMPRSS6 (matriptase-2) (SEQ ID NO:97) (generated by LakePharma Inc as described above, FIGS. 5A, 5D, 5G, 5J, 5M, 5P) were used as a positive control and HEK293T cells (FIGS. 5A-5R) were used as a negative control (as described above). Cells were blocked and permeabilized with dPBS + 3% BSA + 0.1% Tween-20 before incubation with various anti-TMPRSS6 antibodies diluted in dPBS + 3% BSA + 0.1% Tween-20. Cells were incubated with anti-TMPRSS6 antibodies and their humanized variants at a concentration of roughly 1 µg/ml for 1 hr. After incubation, cells were washed with dPBS and incubated with goat anti-mouse IgG conjugated with AlexaFluor-488 (Invitrogen, FIGS. 5A-5I) or goat anti-human IgG conjugated with Allophycocyanin (APC) (Jackson Immuno Research, FIGS. 5J-5R) as a 2° antibody. At last, cells were washed with dPBS and re-suspended with dPBS + 1 mM EDTA, and then subjected to FACS analysis using a NOVOCYTE® Flow Cytometer. Bound antibody was determined by excitation at 488 nm and measurement of emission (FITC-A) at 530 nm (FIGS. 5A-5I) or by excitation at 640 nm and measurement of emission (APC-A) at 675 nm (FIGS. 5J-5R). Results for these assays are shown in histogram plots in FIGS. 5A-5R.
Take B1: the binding result is listed as “no binding (tested: roughly 1 µg/ml)”.
Still for that read-out and setting: the entry for B2 is “no binding (tested: roughly 1 µg/ml)”; for B3 it is “no binding (tested: roughly 1 µg/ml)”.
Same read-out and setting: the result for B4 reads “no binding (tested: roughly 1 µg/ml)”; that for B6, “no binding (tested: roughly 1 µg/ml)”; that for B5, “no binding (tested: roughly 1 µg/ml)”.
